Test results reported in US20100285988A1.
Read-outs that look alike come from different tables or passages of the source.

Key:
[1] = target: T1, γ-secretase (human; HeLa cell membrane / solubilized HeLa membrane; endogenous in HEK293 cells) (human), P49768; conditions: modification not given
[2] = target: T1, γ-secretase (human; HeLa cell membrane …); conditions: modification not given; remark: listed apart in the source

Binder: KLVFFAED
- IC50 [1]: 14 µM

Binder: LVFFAEDV
- IC50 [2]: 8.9 µM
